Measurements: patent publication US20210380680A1 (ZLLP, published 2021)
Like-named read-outs stand apart in the source and are kept apart here.

How the values were obtained:
[1] = biological target: T1, CLDN18.2 endogenously expressed on SNU620 gastric cancer cells (UniProt P56856-2 1-261, limits assumed); experiment: FACS Exp. 3, SNU620 cells
T1 construct: whole, on cells; also called SU620

[2] = biological target: T2, human Claudin 18.2 (CLDN18.2) (human, UniProt P56856-2 1-261); experiment: FACS Exp. 1, MFI ratio CHO-18.2 over CHO-18.1
T2 construct: whole, on cells; recombinantly expressed on CHO, HEK293, NCI-N87, NUGC4 or PANC-1 cells; also called CHO-CLDN18.2

[3] = biological target: T2, human Claudin 18.2 (CLDN18.2); experiment: FACS on CHO-CLDN18.2 cells
[4] = biological target: T2, human Claudin 18.2 (CLDN18.2); experiment: FACS on CHO-CLDN18.2 cells; remark: listed apart in the source
[5] = biological target: T2, human Claudin 18.2 (CLDN18.2); experiment: cell-based or functional assay
[6] = biological target: T2, human Claudin 18.2 (CLDN18.2); experiment: cell-based or functional assay; remark: listed apart in the source

MFI_SNU620 (@30 ug/ml) [1] [MFI]	MFI_CHO-18.2/CHO-18.1 (@30 ug/ml) [2]	EC50 [3] [nM]	Binder	further results
1060	521		hz282-2 (antibody, V domains shown, humanized IgG; constant regions not specified) VH: QVQLQESGPGLVKPSETLSLTCTVSGFSLTSYNVYWIRQPPGKGLEWIGVIWNTGATRYNSALKSRVTISKDTSKNQVSLKLSSVTAADTAVYYCARDSAMPAIPFAYWGQGTLVTVSS VL: DIVMTQSPDSLAVSLGERATINCKSSQSLFGSVRQKNYLAWYQQKPGQPPKLLIYLASTRESGVPDRFSGSGSGTDFTLTISSLQAEDVAVYYCQQYYDIPWTFGGGTKVEIK	
1290	521		hz282-6 (antibody, V domains shown, humanized IgG; constant regions not specified) VH: QVQLQESGPGLVKPSETLSLTCTVSGFSLTSYNVYWIRQPPGKGLEWIGVIWNTGATRYNSALKSRVTISKDTSKNQVSLKLSSVTAADTAVYYCARDSAMPAIPFAYWGQGTLVTVSS VL: DIVMTQSPDSLAVSLGERATINCKSSQSLFGSVRQKNYLAWYQQKPGQSPKLLIYLASTRESGVPDRFSGSGSGTDFTLTISSLQAEDVAKYYCQQYYDIPWTFGGGTKVEIK	
1220	798		hz282-14 (antibody, V domains shown, humanized IgG; constant regions not specified) VH: QVQLQESGPGLVKPSETLSLTCTVSGFSLTSYNVYWIRQPPGKGLEWIGVIWNTGATRYNSALKSRVTISKDTSKNQVSLKLSSVTAADTAVYYCARDSAMPAIPFAYWGQGTLVTVSS VL: DIQMTQSPSSLSASVGDRVTITCKSSQSLFGSVRQKNYLAWYQQKPGKSPKLLIYLASTRESGVPDRFSGSGSGTDFTLTISSLQPEDFAKYYCQQYYDIPWTFGGGTKVEIK	
1250	624		hz282-7 (antibody, V domains shown, humanized IgG; constant regions not specified) VH: QVQLQESGPGLVKPSETLSLTCTVSGFSLTSYNVYWIRQPPGKGLEWIGVIWNTGATRYNSALKSRVTISKDTSKSQVSLKLSSVTAADTAVYYCARDSAMPAIPFAYWGQGTLVTVSS VL: DIVMTQSPDSLAVSLGERATINCKSSQSLFGSVRQKNYLAWYQQKPGQSPKLLIYLASTRESGVPDRFSGSGSGTDFTLTISSLQAEDVAKYYCQQYYDIPWTFGGGTKVEIK	
1210	781		hz282-18 (antibody, V domains shown, humanized IgG; constant regions not specified) VH: QVQLQESGPGLVKPSETLSLTCTVSGFSLTSYNVYWIRQPPGKGLEWIGVIWNTGATRYNSALKSRVTISKDTSKNQVSLKLSSVTAADTAVYYCARDSAMPAIPFAYWGQGTLVTVSS VL: DIVMTQSPSSLSASVGDRVTINCKSSQSLFGSVRQKNYLAWYQQKPGKSPKLLIYLASTRESGVPDRFSGSGSGTDFTLTISSLQPEDFAKYYCQQYYDIPWTFGGGTKVEIK	
1280	550		hz282-16 (antibody, V domains shown, humanized IgG; constant regions not specified) VH: QVQLQESGPGLVKPSETLSLTCTVAGFSLTSYNVYWIRQPPGKGLEWIGVIWNTGATRYNSALKSRVTISKDTSKSQVSLKLSSVTAADTAVYYCARDSAMPAIPFAYWGQGTLVTVSS VL: DIQMTQSPSSLSASVGDRVTITCKSSQSLFGSVRQKNYLAWYQQKPGKSPKLLIYLASTRESGVPDRFSGSGSGTDFTLTISSLQPEDFAKYYCQQYYDIPWTFGGGTKVEIK	
		3.32	413H9F8-H1L4 (antibody, V domains shown, humanized IgG; constant regions not specified) VH: EVQLVESGGGLVQPGGSLRLSCAASGFTFSSFGMHWVRQAPGKGLEWVSYISSGSSPIYYVDKLKGRFTISRDNAKNSLYLQMNSLRAEDTAVYYCARAGYAVRNALDYWGQGTLVTVSS VL: DIVMTQSPDSLAVSLGERATISCKSSQSLLNVGNQKNYLAWYQQKPGQPPKLLIYGASTRESGVPDRFIGSGSGTDFTLTISSLQAEDVAVYFCQNDLFYPLTFGAGTKVEIK	
			413H9F8-cp6 (antibody, V domains shown, humanized IgG; constant regions not specified) VH: DVQLVESGGGLVQPGGSLRLSCAASGFTFSSFGMHWVRQAPGKGLEWVAYISSGSSPIYYVDKLKGRFTVSRDNAKNSLYLQMNSLRAEDTAVYYCARAGYAVRNALDYWGQGTLVTVSS VL: DIVMTQSPPTLSLSPGERVTLSCKSSQSLLNVGNQKNYLAWYQQKPGQAPRLLIYGASTRESGIPDRFSGSGSGTDFTLTISSLQPEDFAVYYCQNDLFYPLTFGGGTKVEIK	EC50 [4]: 2.32 nM
			413H9F8-cp4 (antibody, V domains shown, humanized IgG; constant regions not specified) VH: EVQLVESGGGLVQPGGSLRLSCAASGFTFSSFGMHWVRQAPGKGLEWVSYISSGSSPIYYVDKLKGRFTISRDNAKNSLYLQMNSLRAEDTAVYYCARAGYAVRNALDYWGQGTLVTVSS VL: DIVMTQSPPTLSLSPGERVTLSCKSSQSLLNVGNQKNYLAWYQQKPGQAPRLLIYGASTRESGIPDRFSGSGSGTDFTLTISSLQPEDFAVYYCQNDLFYPLTFGGGTKVEIK	EC50 [4]: 2.28 nM
		2.24	413H9F8-H3L3 (antibody, V domains shown, humanized IgG; constant regions not specified) VH: EVQLVESGGGLVQPGGSLRLSCAASGFTFSSFGMHWVRQAPGKGLEWVAYISSGSSPIYYVDKLKGRFTVSRDNAKNSLYLQMNSLRAEDTAVYYCARAGYAVRNALDYWGQGTLVTVSS VL: DIVMTQSPDSLAVSLGERATINCKSSQSLLNVGNQKNYLAWYQQKPGQPPKLLIYGASTRESGVPDRFIGSGSGTDFTLTISSLQAEDVAVYFCQNDLFYPLTFGGGTKVEIK	
		2.14	413H9F8-H3L2 (antibody, V domains shown, humanized IgG; constant regions not specified) VH: EVQLVESGGGLVQPGGSLRLSCAASGFTFSSFGMHWVRQAPGKGLEWVAYISSGSSPIYYVDKLKGRFTVSRDNAKNSLYLQMNSLRAEDTAVYYCARAGYAVRNALDYWGQGTLVTVSS VL: DIVMTQSPDSLAVSLGERATINCKSSQSLLNVGNQKNYLAWYQQKPGQPPKLLIYGASTRESGVPDRFSGSGSGTDFTLTISSLQAEDVAVYFCQNDLFYPLTFGGGTKVEIK	
		2.34	413H9F8-H4L4 (antibody, V domains shown, humanized IgG; constant regions not specified) VH: EVQLVESGGGLVQPGGSLRLSCAASGFTFSSFGMHWVRQAPGKGLEWVAYISSGSSPIYYVDKLKGRFTVSRDNAKNSLYLQMTSLRAEDTAVYYCARAGYAVRNALDYWGQGTLVTVSS VL: DIVMTQSPDSLAVSLGERATISCKSSQSLLNVGNQKNYLAWYQQKPGQPPKLLIYGASTRESGVPDRFIGSGSGTDFTLTISSLQAEDVAVYFCQNDLFYPLTFGAGTKVEIK	
		2.69	413H9F8-H4L1 (antibody, V domains shown, humanized IgG; constant regions not specified) VH: EVQLVESGGGLVQPGGSLRLSCAASGFTFSSFGMHWVRQAPGKGLEWVAYISSGSSPIYYVDKLKGRFTVSRDNAKNSLYLQMTSLRAEDTAVYYCARAGYAVRNALDYWGQGTLVTVSS VL: DIVMTQSPDSLAVSLGERATINCKSSQSLLNVGNQKNYLAWYQQKPGQPPKLLIYGASTRESGVPDRFSGSGSGTDFTLTISSLQAEDVAVYYCQNDLFYPLTFGGGTKVEIK	
		2.42	413H9F8-H3L1 (antibody, V domains shown, humanized IgG; constant regions not specified) VH: EVQLVESGGGLVQPGGSLRLSCAASGFTFSSFGMHWVRQAPGKGLEWVAYISSGSSPIYYVDKLKGRFTVSRDNAKNSLYLQMNSLRAEDTAVYYCARAGYAVRNALDYWGQGTLVTVSS VL: DIVMTQSPDSLAVSLGERATINCKSSQSLLNVGNQKNYLAWYQQKPGQPPKLLIYGASTRESGVPDRFSGSGSGTDFTLTISSLQAEDVAVYYCQNDLFYPLTFGGGTKVEIK	
		2.74	413H9F8-H3L4 (antibody, V domains shown, humanized IgG; constant regions not specified) VH: EVQLVESGGGLVQPGGSLRLSCAASGFTFSSFGMHWVRQAPGKGLEWVAYISSGSSPIYYVDKLKGRFTVSRDNAKNSLYLQMNSLRAEDTAVYYCARAGYAVRNALDYWGQGTLVTVSS VL: DIVMTQSPDSLAVSLGERATISCKSSQSLLNVGNQKNYLAWYQQKPGQPPKLLIYGASTRESGVPDRFIGSGSGTDFTLTISSLQAEDVAVYFCQNDLFYPLTFGAGTKVEIK	% ADCC @ 6.67 nM, NCI-N87-CLDN18.2, FcR-TANK [5]: 16%; ADCC EC50, NCI-N87-CLDN18.2, FcR-TANK [5]: 0.35 nM; % specific cytotoxicity @ 6.67 nM, NUGC4-CLDN18.2, PBMC [6]: 28.7%; ADCC EC50, NUGC4-CLDN18.2, PBMC [6]: 6.09 nM
		2.49	413H9F8-H2L3 (antibody, V domains shown, humanized IgG; constant regions not specified) VH: EVQLVESGGGLVQPGGSLRLSCAASGFTFSSFGMHWVRQAPGKGLEWVAYISSGSSPIYYVDKLKGRFTISRDNAKNSLYLQMNSLRAEDTAVYYCARAGYAVRNALDYWGQGTLVTVSS VL: DIVMTQSPDSLAVSLGERATINCKSSQSLLNVGNQKNYLAWYQQKPGQPPKLLIYGASTRESGVPDRFIGSGSGTDFTLTISSLQAEDVAVYFCQNDLFYPLTFGGGTKVEIK	
		2.8	413H9F8-H2L4 (antibody, V domains shown, humanized IgG; constant regions not specified) VH: EVQLVESGGGLVQPGGSLRLSCAASGFTFSSFGMHWVRQAPGKGLEWVAYISSGSSPIYYVDKLKGRFTISRDNAKNSLYLQMNSLRAEDTAVYYCARAGYAVRNALDYWGQGTLVTVSS VL: DIVMTQSPDSLAVSLGERATISCKSSQSLLNVGNQKNYLAWYQQKPGQPPKLLIYGASTRESGVPDRFIGSGSGTDFTLTISSLQAEDVAVYFCQNDLFYPLTFGAGTKVEIK	
		2.62	413H9F8-H4L3 (antibody, V domains shown, humanized IgG; constant regions not specified) VH: EVQLVESGGGLVQPGGSLRLSCAASGFTFSSFGMHWVRQAPGKGLEWVAYISSGSSPIYYVDKLKGRFTVSRDNAKNSLYLQMTSLRAEDTAVYYCARAGYAVRNALDYWGQGTLVTVSS VL: DIVMTQSPDSLAVSLGERATINCKSSQSLLNVGNQKNYLAWYQQKPGQPPKLLIYGASTRESGVPDRFIGSGSGTDFTLTISSLQAEDVAVYFCQNDLFYPLTFGGGTKVEIK	% ADCC @ 6.67 nM, NCI-N87-CLDN18.2, FcR-TANK [5]: 15.4%; ADCC EC50, NCI-N87-CLDN18.2, FcR-TANK [5]: 0.47 nM; % specific cytotoxicity @ 6.67 nM, NUGC4-CLDN18.2, PBMC [6]: 27.8%; ADCC EC50, NUGC4-CLDN18.2, PBMC [6]: 7.01 nM
		2.45	413H9F8-H4L2 (antibody, V domains shown, humanized IgG; constant regions not specified) VH: EVQLVESGGGLVQPGGSLRLSCAASGFTFSSFGMHWVRQAPGKGLEWVAYISSGSSPIYYVDKLKGRFTVSRDNAKNSLYLQMTSLRAEDTAVYYCARAGYAVRNALDYWGQGTLVTVSS VL: DIVMTQSPDSLAVSLGERATINCKSSQSLLNVGNQKNYLAWYQQKPGQPPKLLIYGASTRESGVPDRFSGSGSGTDFTLTISSLQAEDVAVYFCQNDLFYPLTFGGGTKVEIK	
